Where no end group is shown, it is not given here. [ ]: non-standard residue; d: D form. sY = N[C@@H](Cc1ccc(OS(=O)(=O)O)cc1)C(=O)O
Tests used:
[1] = molecular target: T1, BNGR-A9 expressed in BmN cells (pIZT-BNGR-A9) (Bombyx mori) (UniProt B3XXM2)
T1 sequence: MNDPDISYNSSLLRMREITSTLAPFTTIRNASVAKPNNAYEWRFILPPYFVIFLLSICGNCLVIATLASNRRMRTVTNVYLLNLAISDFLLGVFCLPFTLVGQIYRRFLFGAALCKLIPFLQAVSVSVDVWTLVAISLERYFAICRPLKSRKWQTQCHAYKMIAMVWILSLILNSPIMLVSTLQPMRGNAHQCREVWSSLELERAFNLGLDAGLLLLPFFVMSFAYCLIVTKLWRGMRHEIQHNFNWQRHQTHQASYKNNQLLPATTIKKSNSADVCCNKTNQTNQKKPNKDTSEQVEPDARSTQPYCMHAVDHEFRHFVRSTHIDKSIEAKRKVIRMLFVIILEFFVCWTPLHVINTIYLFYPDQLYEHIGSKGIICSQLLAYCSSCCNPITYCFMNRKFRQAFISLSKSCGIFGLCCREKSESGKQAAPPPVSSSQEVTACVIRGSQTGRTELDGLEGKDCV

[2] = molecular target: T2, Flag-BNGR-A9 (Bombyx mori neuropeptide G protein-coupled receptor A9) expressed in HEK293 cells (Bombyx mori) (UniProt B3XXM2)
T2 sequence: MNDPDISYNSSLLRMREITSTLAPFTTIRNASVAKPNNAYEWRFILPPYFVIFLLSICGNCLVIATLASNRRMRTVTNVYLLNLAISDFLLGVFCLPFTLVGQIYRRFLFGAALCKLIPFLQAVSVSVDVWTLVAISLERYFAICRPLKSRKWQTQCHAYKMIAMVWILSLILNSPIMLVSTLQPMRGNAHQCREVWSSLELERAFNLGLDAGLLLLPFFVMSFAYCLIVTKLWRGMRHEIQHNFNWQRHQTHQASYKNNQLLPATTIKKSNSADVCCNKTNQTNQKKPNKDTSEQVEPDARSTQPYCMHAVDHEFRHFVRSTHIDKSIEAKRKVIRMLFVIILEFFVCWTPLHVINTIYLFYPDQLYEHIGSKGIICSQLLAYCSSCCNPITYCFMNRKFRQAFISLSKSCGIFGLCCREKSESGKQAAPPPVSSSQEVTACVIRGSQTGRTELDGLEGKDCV

[3] = molecular target: T1, BNGR-A9 expressed in BmN cells (pIZT-BNGR-A9) (Bombyx mori); remark: listed apart in the source
[4] = molecular target: T2, Flag-BNGR-A9 (Bombyx mori neuropeptide G protein-coupled receptor A9) expressed in HEK293 cells (Bombyx mori); remark: listed apart in the source

CRE-driven luciferase reporter, dose-response, BmN cells stably expressing BNGR-A9 [1]: 60 nM | CRE-driven luciferase reporter, dose-response, HEK293 cells stably expressing BNGR-A9 [2]: 73.3 nM | Fura-2 AM Ca2+ mobilization, dose-response, BmN cells expressing BNGR-A9 [3]: 51.4 nM | Fura-2 AM Ca2+ mobilization, dose-response 1 nM to 1 uM, HEK293 cells stably expressing BNGR-A9 [4]: 29 nM
B1: Bombyx mori sulfated-sulfakinin (peptide)
peptide: GDDTFDD[sY]GHLRF-NH2
modifications: N-terminus assumed
SMILES: CC(C)C[C@H](NC(=O)[C@H](Cc1c[nH]cn1)NC(=O)CNC(=O)[C@H](Cc1ccc(OS(=O)(=O)O)cc1)NC(=O)[C@H](CC(=O)O)NC(=O)[C@H](CC(=O)O)NC(=O)[C@H](Cc1ccccc1)NC(=O)[C@@H](NC(=O)[C@H](CC(=O)O)NC(=O)[C@H](CC(=O)O)NC(=O)CN)[C@@H](C)O)C(=O)N[C@@H](CCCNC(=N)N)C(=O)N[C@@H](Cc1ccccc1)C(N)=O
